Columns and labels:
[1] = biological target: topoisomerase I from H358 cells (serine-phosphorylated) (human) (UniProt P11387); experiment: IP/Western analysis, FIG. 5D upper panel
[2] = biological target: topoisomerase I from H358 cells (serine-phosphorylated) (human) (UniProt P11387); experiment: co-immunoprecipitation followed by Western analysis, 48 hours after Adp14 (moi 20 pfu/cell)
[3] = biological target: topoisomerase I from H358 cells (serine-phosphorylated) (human) (UniProt P11387); experiment: IP/Western analysis, FIG. 5D upper panel lane 5

Sequence of topoisomerase I from H358 cells (serine-phosphorylated) (human) (P11387 2-765 limits assumed): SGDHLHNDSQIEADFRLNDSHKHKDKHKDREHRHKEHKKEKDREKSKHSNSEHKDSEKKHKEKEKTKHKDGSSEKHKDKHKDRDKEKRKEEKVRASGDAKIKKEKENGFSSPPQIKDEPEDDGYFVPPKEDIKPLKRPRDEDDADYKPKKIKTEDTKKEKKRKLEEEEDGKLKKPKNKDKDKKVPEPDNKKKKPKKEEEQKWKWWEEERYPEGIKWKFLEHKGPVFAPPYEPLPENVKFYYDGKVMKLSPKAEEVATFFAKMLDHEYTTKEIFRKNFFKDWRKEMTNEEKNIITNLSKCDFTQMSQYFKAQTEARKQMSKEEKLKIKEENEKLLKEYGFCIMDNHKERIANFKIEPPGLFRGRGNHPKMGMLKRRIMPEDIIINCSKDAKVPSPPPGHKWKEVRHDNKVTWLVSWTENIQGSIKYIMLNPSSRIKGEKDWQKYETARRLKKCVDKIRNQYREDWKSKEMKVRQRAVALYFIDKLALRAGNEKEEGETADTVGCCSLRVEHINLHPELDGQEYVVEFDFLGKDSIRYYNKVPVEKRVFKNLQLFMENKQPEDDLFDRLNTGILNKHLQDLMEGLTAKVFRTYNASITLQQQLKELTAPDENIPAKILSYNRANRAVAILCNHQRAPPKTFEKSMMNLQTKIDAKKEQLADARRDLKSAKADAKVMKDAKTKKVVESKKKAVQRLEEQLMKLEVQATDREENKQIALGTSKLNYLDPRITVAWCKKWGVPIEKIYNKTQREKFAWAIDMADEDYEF

p14ARF (ARF), cellular protein in nuclear extracts (endogenous or expressed from the Adp14 adenoviral vector) (from UniProt Q8N726 1-132)
3 fold: fold increase in ARF/topoisomerase I complex formation in Adp14-treated H358 cells against Ad1β-treated, control siRNA treated, or non-vector treated cells [1] | fold increase of co-immunoprecipitated ARF-topoisomerase I complexes after Adp14 treatment against untreated H358 cells [2] | fold decrease in ARF/topoisomerase I complex formation in ARF siRNA-treated H358 cells [3]
